These results are taken from patent publication KR20220167207A (dated 2022).

Read-outs that look alike come from different tables or passages of the source. Where no end group is shown, it is not given here.

A word on the Kd: it is a measure of binding affinity in units of concentration.

The target of assay [1] is T1, BSA-conjugated human CADM1 peptide (human, also: conjugated to BSA via added C-terminal Cys).
T1 construct: also called human peptide; rhCADM1 peptide
T1 peptide: DSRAGEEGSIRAVDHC(BSA)
Put plainly: ELISA, scFv titrated on coated BSA-conjugated human CADM1 peptide, anti-HA-HRP, OD450. Background: ELISA stands for enzyme-linked immunosorbent assay.

The target of assay [2] is T2, BSA-conjugated mouse CADM1 peptide (mouse, also: conjugated to BSA via added C-terminal Cys).
T2 construct: also called mouse peptide
T2 peptide: DSRAGEEGTIGAVDHC(BSA)
Put plainly: ELISA, scFv titrated on coated BSA-conjugated mouse CADM1 peptide, anti-HA-HRP, OD450.

For assay [3], the target named is T1, BSA-conjugated human CADM1 peptide. The experiment in a line: ELISA, scFv titrated on coated BSA-conjugated human CADM1 peptide, anti-HA-HRP, OD450.
The target of assay [4] is T2, BSA-conjugated mouse CADM1 peptide. Put plainly: ELISA, scFv titrated on coated BSA-conjugated mouse CADM1 peptide, anti-HA-HRP, OD450.
Assay [5] deals with T3, CADM1 peptide expressed on SBC-5 small cell lung cancer cells (CADM1-SBC-5); peptide - transmembrane domain - … (human).
T3 construct: also called CADM1 펩타이드를 발현하는 SBC-5 세포
T3 sequence (Q9BY67 whole entry, looked up): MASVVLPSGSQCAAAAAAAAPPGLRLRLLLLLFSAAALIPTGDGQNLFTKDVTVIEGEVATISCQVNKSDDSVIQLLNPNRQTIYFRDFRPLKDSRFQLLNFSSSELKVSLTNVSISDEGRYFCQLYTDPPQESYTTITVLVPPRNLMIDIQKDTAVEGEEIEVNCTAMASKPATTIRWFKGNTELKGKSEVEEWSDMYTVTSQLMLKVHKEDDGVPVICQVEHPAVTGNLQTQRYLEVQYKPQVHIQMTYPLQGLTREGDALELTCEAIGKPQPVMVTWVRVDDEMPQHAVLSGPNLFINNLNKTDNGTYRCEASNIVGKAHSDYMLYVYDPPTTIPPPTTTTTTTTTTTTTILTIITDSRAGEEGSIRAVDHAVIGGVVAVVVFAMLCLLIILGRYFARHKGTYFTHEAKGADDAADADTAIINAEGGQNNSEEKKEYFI
The experiment in a line: flow cytometry, 1 ug scFv on 5x10^5 SBC-5 cells expressing the CADM1 peptide, PE anti-HA. On the technique in general: Flow cytometry measures light scatter and fluorescence of single cells or particles in a stream.

For assay [6], the target named is T4, comparison structure: the same structure without the CADM1 peptide (Myc tag, hinge, transmembrane domain, …).
T4 construct: also called 비교군 구조; CADM1 펩타이드를 포함하지 않는 세포
Put plainly: flow cytometry, 1 ug scFv on 5x10^5 cells with the structure without the CADM1 peptide, PE anti-HA.

B1: 5RA5 (scFv, V domains shown)
VH: EVQLLESGGGLVQPGGSLRLSCAASGFTFSNYAMSWVRQAPGKGLEWVSWIYHGGGDTYYADSVKGRFTISRDNSKNTLYLQMNSLRAEDTAVYYCARAAVYCKRTNCYSYDAMDVWGQGTLVTVSS
VL: QSVLTQPPSASGTPGQRVTISCSGSSSNIGNNSVTWYQQLPGTAPKLLIYSNNNRPSGVPDRFSGSKSGTSASLAISGLRSEDEADYYCGAWDDSLNAYVFGGGTKLTAL
notes: Tested as purified scFv (one chain) with His tag and HA tag, from pComb3X in E. coli; human synthetic library
In the case of B1, in assay [1], the Bmax was 4.29 and binding was characterised by a dissociation constant (Kd) of 0.0104 µM. For the same molecule, in assay [2], the Bmax is 4.39 and the Kd was found to be 0.0395 µM.

B2: 5RB6 (scFv, V domains shown)
VH: EVQLLESGGGLVQPGGSLRLSCAASGFTFSDYAMSWVRQAPGKGLEWVSWIYYDSGSKYYADSVKGRFTISRDNSKNTLYLQMDSLRAEDTAVYYCAKHGRNTKNWPWYSANGMDVWGQGTLVTVSS
VL: QSVLTQPPSASGTPGQRVTISCTGSSSNIGSNSVSWYQQLPGTAPKLLIYSDSKRPSGVPDRFSGSKSGTSASLAISGLRSEDEADYYCGAWDSSLSAYVFGGGTKLTVL
notes: Tested as purified scFv with His tag and HA tag; human synthetic library; also called 5RB6(H); 5RB6 # Human specific
B2: in assay [1], the Bmax was 4.25 and binding was characterised by a dissociation constant (Kd) of 0.0119 µM.

B3: 5RH12 (scFv, V domains shown)
VH: EVQLLESGGGLVQPGGSLRLSCAASGFTFSNYAMSWVRQAPGKGLEWVSWIYHGGGDTYYADSVKGRFTISRDNSKNTLYLQMSSLRAEDTAVYYCARARVHCQQRRCSSYDAMDVWGQGTLVTVSS
VL: QSVLTQPPSASGTPGQRVTISCSGSSSNIGSNSVSWYQQLPGTAPKLLIYADSHRPSGVPDRFSGSKSGTSASLAISGLRSEDEADYYCGAWDDSLSAYVFGGGTKLTVL
notes: Tested as purified scFv with His tag and HA tag; human synthetic library
As for B3, in assay [1], the Bmax came to 5.07 and the Kd was 0.271 µM. In assay [2], this molecule came in with a Bmax of 6.13 and a Kd of 0.666 µM.

B4: 5RA7 (scFv, V domains shown)
VH: EVQLLESGGGLVQTGGSLRLSCAASGFTFSDYAMSWVRQAPGRGLEWVSAIYPGNSSIYYADSVKGRFTISRDNSKNTLYLQMNSLRAEDTAVYYCARVPVQCMLTRCYSYDAMDVWGQGTLVTVSS
VL: QSVLTQPPSASGTPGQRVTISCTGSSSNIGNNSVTWYQQLPGTAPKLLIYADSHRPSGVPDRFSGSKSGTSASLAISGLRSEDEADYYCGAWDSSLNAYVFGGGTKLTVL
notes: as for B3
With B4, in assay [1], the Bmax turned out to be 4.42 and the affinity, expressed as Kd, was 0.0437 µM. In assay [2], this molecule returned a Bmax of 4.54 and a Kd of 0.114 µM.

B5: 5RA8 (scFv, V domains shown)
VH: EVQLLESGGGLVQPGGSLRLSCAASGFTFSSYGMSWVRQAPGKGLEWVSGISYSGGSTYYADSVKGRFTISRDNSKNTLYLQMNSLRAEDTAVYYCARPISRLGAYMWSSSYAMDVWGQGTLVTVSS
VL: QSVLTQPPSASGTPGQRVTISCSGSSSNIGSNYVTWYQQLPGTAPKLLIYANSNRPSGVPDRFSGSKSGTSASLAISGLRSEDEADYYCGSWDASLNGYVFGGGTKLTVL
notes: as for B3
In assay [1], B5 returned a Bmax of 4.12 and a Kd of 0.0019 µM. In addition, in assay [2], the Bmax amounted to 4.11 and binding was characterised by a dissociation constant (Kd) of 0.002 µM.

B6: 5RG9 (scFv, V domains shown)
VH: EVQLLESGGGLVQPGGSLRLSCAASGFTFSSYGMSWVRQAPGKGLEWVSWISYSGGNTYYADSVKGRFTISRDNSKNTLYLQMNSLRAEDTAVYYCARPISHFGAYMWSSSYAMDVWGQGTLVTVSS
VL: QSVLTQPPSASGTPGQRVTISCSGSSSNIGSNYVTWYQQLPGTAPKLLIYANSNRPSGVPDRFSGSKSGTSASLAISGLRSEDGADYYCGAWDASLNGYVFGGGTKLTVL
notes: as for B3
Regarding B6, the Bmax in assay [1] amounted to 3.52; in assay [2], 3.64. The Kd in assay [1] turned out to be 0.00805 µM; in assay [2], 0.00697 µM.

B7: 4C8 (scFv, V domains shown)
VH: AVTLDESGGGLQTPGRALSLVCKASGFSFSSYSMYWVRQAPGKGLEYVAEITSSGRYTYYGSAVKGRATISRDNGQSTVRLQLNNFRAEDTATYFCAKGSGTGYSDSGAGGEIDAWGHGTEVIVSS
VL: LTQPSSVSANPGETVKITCSGGSGSYYGWYQQKSPGSAPVTVIYQNKQRPSNIPSRFSGSKSGSTGTLTITGVQAEDEAVYFCGNYESSAGIFGAGTTLTVL
notes: Tested as purified scFv with His tag and HA tag; chicken immune library
In assay [3], B7 gave a Bmax of 4.47 and a Kd of 0.0665 µM. In assay [4], this molecule showed a Bmax of 2.06 and a Kd of 0.476 µM. Also, in assay [5], the “결합력 (%)” value was found to be 2.3%.

B8: 6RC7 (scFv, V domains shown)
VH: EVQLLESGGGLVQPGGSLRLSCAASGFTFSNYAMSWVRQAPGKGLEWVSGIYPNSGSNTYYADSVKGRFTISRDNSKNTLYLQMNSLRAEDTAVYYCARAIGPCLRYPCYSADAMDVWGQGTLVTVSS
VL: QSVLTQPPSASGTPGQRVTISCTGSSSNIGSNYVNWYQQLPGTAPKLLIYANSNPPSGVPDRFSGSKSGTSASLGISGLRSEDEADYYCGAWDDNLNAYVFVGGTKLTVL
notes: as for B3
Turning to B8, the Bmax in assay [1] and in assay [2] was 4.19 throughout. In addition, the Kd in assay [1] worked out at 0.00423 µM; in assay [2] it was 0.0048 µM.

B9: 3C5 (scFv, V domains shown)
VH: AVTLDESGGGLQTPGRALSLVCKGSGFTFSSVNMFWVRQAPGKGLEYVAGIRKDGGGPLYGAAVKGRATISRDNGQSTVRLQLNNLRAEDTGTYYCAKAAGSCWAGCTGFIDAWGHGTEVIVSS
VL: LTQPSSVSANPGETVKITCSGGYNYYGWYQQKAPGSAPVTLIYANTDRPSDIPSRFSGSKFGSTATLTITGVQAEDEAVYFCGSRDSSYVGVFGAGTTLTVL
notes: as for B7
In assay [3], B9 showed a Bmax of 4.41 and a Kd of 0.0497 µM. In assay [4], this molecule returned a Bmax of 4.05 and an equilibrium dissociation constant (Kd) of 0.0417 µM. Further, the “결합력 (%)” value in assay [5] was determined as 1.1%.

B10: 5A5 (scFv, V domains shown)
VH: AVTLDESGGGLQTPGGGLSLVCKGSGFTFSSVNMFWVRQAPGKGLEYVAGIRKDGGGPLYGAAVKGRATISRDNGQSTVRLQLNNLRAEDTGTYYCAKAAGSCWAGCTGFIDAWGHGTEVIVSS
VL: LTQPSSVSANLGGTVKITCSGSSGYGYGWYQQKSPGSAPVTVIYYNNKRPSDIPSRFSGSKSGSTATLTITGVQVEDEAVYYCGSADSSAGYVGIFGAGTTLTVL
notes: as for B7
As to B10, in assay [3], the Bmax was found to be 4.52 and binding was characterised by a dissociation constant (Kd) of 0.123 µM. For the same molecule, in assay [4], the Bmax was found to be 4.54 and the Kd is 0.136 µM.

B11: 3G10 (scFv, V domains shown)
VH: AVTLDESGGGLQTPGGGLSLVCKGSGFTFSSVNMFWVRQAPGKGLEYVAGIRKDGGGPLYGAAVKGRATISRDNGQSTVRLQLNNLRAEDTGTYYCAKAAGSCWAGCTGFIDAWGHGTEVIVSS
VL: LTQPSSVSANPGETVKITCSGSTGSYGWFQQKSPGSALVTLIYNGNNRPSDIPSRFSGSKSGSTGTLTITGVQADDEAVYFCGGRESRSNPGIFGAGTTLTVL
notes: as for B7
Consider B11, for which, in assay [3], the Bmax was 1.91 and the Kd was 0.00277 µM. In assay [4], this molecule showed a Bmax of 1.62 and a Kd of 0.000926 µM.

B12: 4H7 (scFv, V domains shown)
VH: AVTLDESGGGLQTPGGTLSLVCKASGFDFSSYEMAWVRQAPGKGLEYVAGIDNTGSATNYGAAVKGRATISRDNGQSTVRLQLNNLRAEDTATYFCAKDAYGYSGSDSWYAANPAYIDAWGHGTEVIVSS
VL: LTQPSSVSANPGETVKITCSGSSGSYGWYQQKSPGSAPVTVIYDNTNRPSDIPSRFSGSKSGSTGTLTITGVQAEDEAVYFCGSRDSSYVGIFGAGTTLTVL
notes: as for B7
For the molecule B12, in assay [3], the Bmax worked out at 4.48 and the Kd is 0.0527 µM. In assay [4], this molecule registered a Bmax of 5.57 and a Kd of 0.394 µM. Also, the “결합력 (%)” value in assay [5] came to 3.3%.

B13: 5A2 (scFv, V domains shown)
VH: AVTLDESGGGLQTPGGTLSLVCKGSGFDFSSVNMFWVRQAPGKGLEYVAGIRKDGGGPLYGAAVKGRATISRDNGQSTVRLQLNNLRAEDTGTYFCAKAAGSCWAGCTGFIDAWGHGTEVIVSS
VL: LTQPSSVSANPGETVKITCSGGSSYYGWYQQKSPGSAPVTVIYYNDKRPSDIPSRFSGSKSGSTATLTITGVQAEDEAVYYCGSADSSYVGIFGAGTTLTVL
notes: as for B7
For the molecule B13, the Bmax in assay [3] stood at 4.38; in assay [4], 4.32. In addition, the Kd in assay [3] is 0.0479 µM; in assay [4], 0.0592 µM. Moreover, the “결합력 (%)” value in assay [5] stood at 1.2%.

B14: 4A2 (scFv, V domains shown)
VH: AVTLDESGGGLQTPGRALSLACKGSGFTFSSYAMNWVRQAPGKGLEFVAQITSSGRYTYYGTAVKGRATISRDNGQSTVRLQLNNLRAEDSGTYYCAKDAAAGYYDGATAGDIDAWGHGTEVIVSS
VL: LTQPSSVSANPGETVKITCSGGYNRYGWYQQKSPGSAPVTVIYSNNQRPSNIPSRFSGSKSGSTATLTITGVQAEDEAVYYCGSYDSSDGYAGIFGAGTTLTVL
notes: as for B7
Regarding B14, the values for the Bmax in assay [3] and in assay [4] were 4.14 and 4.49, respectively. Further, the Kd in assay [3] was found to be 0.00419 µM; in assay [4], 0.0792 µM. Moreover, the “결합력 (%)” value in assay [5] was found to be 18.5%; in assay [6] it was 0.7%.
